According to patent US20160002357A1 (Pfizer, published 2016):
Positions count from the first letter of the chain named. “And” between values parts separate entries of the source, which are not always exact repeats. Identical values can stand only once.

B1: 35 EK-DART (bispecific antibody)
chain 1: QSVLTQPPSVSAAPGQKVTISCSGSSSNIGNNYVSWYQQLPGTAPKLLIYDNNKRPSGIPDRFSGSKSGTSATLGITGLQTGDEADYYCGTWDSSLSAVVFGGGTKLTVLGGGSGGGGEVQLVESGGGLVQPGGSLRLSCAASGFTFNTYAMNWVRQAPGKGLEWVARIRSKYNNYATYYADSVKDRFTISRDDSKNSLYLQMNSLKTEDTAVYYCVRHGNFGNSYVSWFAYWGQGTLVTVSSGGCGGGKVAALKEKVAALKEKVAALKEKVAALKE
chain 2: QAVVTQEPSLTVSPGGTVTLTCRSSTGAVTTSNYANWVQQKPGQAPRGLIGGTNKRAPWTPARFSGSLLGGKAALTITGAQAEDEADYYCALWYSNLWVFGGGTKLTVLGGGGSGGGGEVQLVQSGAEVKKPGASVKVSCKASGYTFTSYGISWVRQAPGQGLEWMGWISAYNGNTNYAQKLQGRVTMTTDTSTSTAYMELRSLRSDDTAVYYCATIDTASAFDIWGQGTMVTVSSGGCGGGEVAALEKEVAALEKEVAALEKEVAALEK
notes: also called P-CAD 35 EK-DART (CD3-2); parental 35 EK-DART
B2: 34 EK-DART (bispecific antibody)
chain 1: B1 chain 1 with L4V, V99W
chain 2: B1 chain 2
notes: also called P-CAD 34 EK-DART (CD3-2)
B3: 33 EK-DART (bispecific antibody)
chain 1: B1 chain 1 with V99Y, G103T, L107V
chain 2: B1 chain 2 with E119Q, V120M, T216L, D218G, T219S, A220G, S221V
notes: CD3 VL x P-CAD VH-E-coil); also called P-CAD 33 EK-DART (CD3-2)
B4: 30 EK-DART (bispecific antibody)
chain 1: DIVMTQSPLSLPVTLGQPASISCRSSQSLVHSDGNTYLHWFQQRPGQSPRRLIYKVSNRDSGVPDRFSGSGSGTDFTLKISRVEAEDVGVYYCMQGTHWPPLFGQGTKVEIKGGGSGGGGEVQLVESGGGLVQPGGSLRLSCAASGFTFNTYAMNWVRQAPGKGLEWVARIRSKYNNYATYYADSVKDRFTISRDDSKNSLYLQMNSLKTEDTAVYYCVRHGNFGNSYVSWFAYWGQGTLVTVSSGGCGGGKVAALKEKVAALKEKVAALKEKVAALKE
chain 2: QAVVTQEPSLTVSPGGTVTLTCRSSTGAVTTSNYANWVQQKPGQAPRGLIGGTNKRAPWTPARFSGSLLGGKAALTITGAQAEDEADYYCALWYSNLWVFGGGTKLTVLGGGGSGGGGEVQLVESGGGVVQPGRSLRLSCAASGFTFSSYGMHWVRQAPGKGLEWVAVISYDGSNKYYADSVKGRFTISRDNSKNTLYLQMNSLRAEDTAVYYCAKSSSDRTFDYWGQGTLVTVSSGGCGGGEVAALEKEVAALEKEVAALEKEVAALEK
notes: also called P-CAD 30 EK-DART (CD3-2)
B5: 20 EK-DART (bispecific antibody)
chain 1: AIQMTQSPSSLSASVGDRVTITCRASQSIGKYLNWYQQIPGKAPKLLIYTASTLQTGVPSRFSGSGSGTDFTLTIVSLQPEDFATYYCQQSFNTPRTFGQGTKVEIKGGGSGGGGEVQLVESGGGLVQPGGSLRLSCAASGFTFNTYAMNWVRQAPGKGLEWVARIRSKYNNYATYYADSVKDRFTISRDDSKNSLYLQMNSLKTEDTAVYYCVRHGNFGNSYVSWFAYWGQGTLVTVSSGGCGGGKVAALKEKVAALKEKVAALKEKVAALKE
chain 2: QAVVTQEPSLTVSPGGTVTLTCRSSTGAVTTSNYANWVQQKPGQAPRGLIGGTNKRAPWTPARFSGSLLGGKAALTITGAQAEDEADYYCALWYSNLWVFGGGTKLTVLGGGGSGGGGEVQLVQSGAEVKKPGASVKVSCKASGYTFTGYYMHWVRQAPGQGLEWMGRINPNSGGTNYAQKFQGRVTMTRDTSISTAYMELSRLRSDDTAVYYCAKGSGSGAFDIWGQGTMVTVSSGGCGGGEVAALEKEVAALEKEVAALEKEVAALEK
notes: also called P-CAD 20 EK-DART (CD3-2)
B6: 153 EK-DART (bispecific antibody)
chain 1: B1 chain 1 with A98G
chain 2: B1 chain 2 with S221N, D224G
B7: 153 MP3 C-terminal DART (bispecific antibody)
chain 1: DKTHTCPPCPAPEAAGAPSVFLFPPKPKDTLMISRTPEVTCVVVDVSHEDPEVKFNWYVDGVEVHNAKTKPREEQYNSTYRVVSVLTVLHQDWLNGKEYKCKVSNKALPAPIEKTISKAKGQPREPQVYTLPPSREEMTKNQVSLWCLVKGFYPSDIAVEWESNGQPENNYKTTPPVLDSDGSFFLYSKLTVDKSRWQQGNVFSCSVMHEALHNHYTQKSLSLSPGKAPSSSPMEQSVLTQPPSVSAAPGQKVTISCSGSSSNIGNNYVSWYQQLPGTAPKLLIYDNNKRPSGIPDRFSGSKSGTSATLGITGLQTGDEADYYCGTWDSSLSGVVFGGGTKLTVLGGGGSGGGGEVQLVESGGGLVQPGGSLRLSCAASGFTFSTYAMNWVRQAPGKGLEWVGRIRSKYNNYATYYADSVKGRFTISRDDSKNSLYLQMNSLKTEDTAVYYCVRHGNFGNSYVSWFAYWGQGTLVTVSSGVEPKSC
chain 2: QAVVTQEPSLTVSPGGTVTLTCRSSTGAVTTSNYANWVQQKPGQAPRGLIGGTNKRAPWTPARFSGSLLGGKAALTITGAQAEDEADYYCALWYSNLWVFGGGTKLTVLGGGGSGGGGEVQLVQSGAEVKKPGASVKVSCKASGYTFTSYGISWVRQAPGQGLEWMGWISAYNGNTNYAQKLQGRVTMTTDTSTSTAYMELRSLRSDDTAVYYCATIDTANAFGIWGQGTMVTVSSGFNRGEC
chain 3: DKTHTCPPCPAPEAAGAPSVFLFPPKPKDTLMISRTPEVTCVVVDVSHEDPEVKFNWYVDGVEVHNAKTKPREEQYNSTYRVVSVLTVLHQDWLNGKEYKCKVSNKALPAPIEKTISKAKGQPREPQVYTLPPSREEMTKNQVSLSCAVKGFYPSDIAVEWESNGQPENNYKTTPPVLDSDGSFFLVSKLTVDKSRWQQGNVFSCSVMHEALHNRYTQKSLSLSPGK
notes: also called C-terminal MP3-DART P-CAD153 VH and VL
B8: 153 MP3 N-terminal DART (bispecific antibody, human IgG1)
chain 1: QSVLTQPPSVSAAPGQKVTISCSGSSSNIGNNYVSWYQQLPGTAPKLLIYDNNKRPSGIPDRFSGSKSGTSATLGITGLQTGDEADYYCGTWDSSLSGVVFGGGTKLTVLGGGGSGGGGEVQLVESGGGLVQPGGSLRLSCAASGFTFSTYAMNWVRQAPGKGLEWVGRIRSKYNNYATYYADSVKGRFTISRDDSKNSLYLQMNSLKTEDTAVYYCVRHGNFGNSYVSWFAYWGQGTLVTVSSGVEPKSCDKTHTCPPCPAPEAAGAPSVFLFPPKPKDTLMISRTPEVTCVVVDVSHEDPEVKFNWYVDGVEVHNAKTKPREEQYNSTYRVVSVLTVLHQDWLNGKEYKCKVSNKALPAPIEKTISKAKGQPREPQVYTLPPSREEMTKNQVSLWCLVKGFYPSDIAVEWESNGQPENNYKTTPPVLDSDGSFFLYSKLTVDKSRWQQGNVFSCSVMHEALHNHYTQKSLSLSPGK
chain 2: B7 chain 2
chain 3: B7 chain 3

What follows are binders tested against T1, human P-cadherin expressed on the cell surface (human, UniProt P22223 108-829) (assay: cell-based or functional assay).
T1 sequence (P22223 108-829): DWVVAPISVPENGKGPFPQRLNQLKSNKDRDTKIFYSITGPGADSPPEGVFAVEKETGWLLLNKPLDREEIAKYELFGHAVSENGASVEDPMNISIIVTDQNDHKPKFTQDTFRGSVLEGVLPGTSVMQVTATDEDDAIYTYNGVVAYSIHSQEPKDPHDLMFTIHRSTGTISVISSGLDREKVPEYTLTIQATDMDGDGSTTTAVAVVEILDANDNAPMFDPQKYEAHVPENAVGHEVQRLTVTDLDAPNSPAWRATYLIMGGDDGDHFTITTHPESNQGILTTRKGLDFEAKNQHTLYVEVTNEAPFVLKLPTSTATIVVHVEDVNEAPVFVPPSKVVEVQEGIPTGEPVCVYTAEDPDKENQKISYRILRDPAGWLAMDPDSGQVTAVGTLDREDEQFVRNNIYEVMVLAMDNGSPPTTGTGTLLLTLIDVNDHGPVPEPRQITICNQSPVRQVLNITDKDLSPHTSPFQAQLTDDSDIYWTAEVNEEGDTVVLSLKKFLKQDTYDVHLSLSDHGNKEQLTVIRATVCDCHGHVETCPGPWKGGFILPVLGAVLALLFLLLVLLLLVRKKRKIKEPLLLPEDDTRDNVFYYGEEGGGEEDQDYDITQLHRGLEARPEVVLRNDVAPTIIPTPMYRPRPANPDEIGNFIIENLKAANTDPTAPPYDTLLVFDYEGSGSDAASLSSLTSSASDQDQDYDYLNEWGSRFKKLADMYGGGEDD
For B1, the “T cell Cytotoxicity” value was 0.33 nM.

The binders below were run against T2, cynomolgus monkey P-cadherin ECD (cynomolgus monkey) (assay: SPR).
T2 construct: extracellular domain; also called cyno P-cadherin ECD; Cyno P-cadherin
Work on B1 yielded a Kd of 42.8 nM.

What follows are binders tested against T3, Hu P-cadherin-Fc (human, UniProt P22223 108-654, limits assumed) (assay: ELISA).
T3 construct: also called recombinant human P-cadherin-Fc; human P-cadherin-Fc; not shown: Fc
T3 sequence (P22223 108-654 limits assumed): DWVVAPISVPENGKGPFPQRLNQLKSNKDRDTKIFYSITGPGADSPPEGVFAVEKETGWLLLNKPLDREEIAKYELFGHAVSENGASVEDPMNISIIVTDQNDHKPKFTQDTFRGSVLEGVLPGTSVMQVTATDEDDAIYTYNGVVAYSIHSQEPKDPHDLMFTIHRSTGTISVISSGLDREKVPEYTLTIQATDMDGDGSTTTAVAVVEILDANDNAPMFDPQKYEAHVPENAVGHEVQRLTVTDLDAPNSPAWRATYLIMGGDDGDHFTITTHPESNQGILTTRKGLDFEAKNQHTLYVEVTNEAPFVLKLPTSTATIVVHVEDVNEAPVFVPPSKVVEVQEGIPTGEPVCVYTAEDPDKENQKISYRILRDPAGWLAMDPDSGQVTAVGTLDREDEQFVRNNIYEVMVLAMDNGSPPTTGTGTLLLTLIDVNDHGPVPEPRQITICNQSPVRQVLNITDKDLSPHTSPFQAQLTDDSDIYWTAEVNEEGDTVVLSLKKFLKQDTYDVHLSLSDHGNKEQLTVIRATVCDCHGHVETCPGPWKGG
B1 was tested, and the EC50 was 1.92 nM. B2 was tested, and the EC50 was 2.85 nM. For B3, the EC50 was 1.8 nM. Work on B4 yielded an EC50 of 3.68 nM. B5 was tested, and the EC50 was 12.3 nM.

What follows are binders tested against T2, cynomolgus monkey P-cadherin ECD (assay: SPR Biacore).
Experimental: (§1) Binding affinity of EK-DART proteins to P-cadherin and CD3 was analyzed by SPR using a BIACORE® 3000 biosensor (GE Healthcare). The antigens huCD3εδ and either human P-cadherin-Fc or human/cynomolgus monkey/murine P-cadherin-ECD were immobilized on the CM-5 sensor chip by amine coupling kit as recommended by the manufacturer. […] All EK-DART proteins in Tables 15 and 16 comprise CD3-2.
All EK-DART proteins in Table 17 comprise CD3-2.
In the case of B1, the Kd is reported as 35 nM, the koff is reported as 0.0215 s⁻¹ and the kon is reported as 614000 M⁻¹ s⁻¹. For B6, the Kd was 0.232 nM, the koff was 0.000172 s⁻¹ and the kon was 732000 M⁻¹ s⁻¹.

These binders were tested against T1, human P-cadherin expressed on the cell … (assay: cell ELISA, H1650 cells).
B1 showed an EC50 of 24.9 nM. Work on B2 yielded an EC50 of 68 nM. B3 gave an EC50 of 60.1 nM. In the case of B4, the EC50 is reported as 142 nM. For B5, the EC50 was roughly 115 nM.

What follows are binders tested against T2, cynomolgus monkey P-cadherin ECD (assay: SPR Biacore pH 7.4).
With B6 the Kd was 0.403 nM and 0.43 nM, the koff was 0.000211 s⁻¹ and 0.000222 s⁻¹ and the kon was 524000 M⁻¹ s⁻¹ and 517000 M⁻¹ s⁻¹. The t½ was 51.6 min and 49 min. In the case of B7, the Kd is reported as 1.56 nM and 2.11 nM, the koff is reported as 0.000106 s⁻¹ and 0.000179 s⁻¹ and the kon is reported as 68000 M⁻¹ s⁻¹ and 84600 M⁻¹ s⁻¹. The t½ was 102 min and 60.9 min. B8 was tested, and the Kd was 2.43 nM and 2.78 nM, the koff was 0.000296 s⁻¹ and 0.000228 s⁻¹ and the kon was 122000 M⁻¹ s⁻¹ and 81900 M⁻¹ s⁻¹. The t½ was 36.8 min and 47.8 min.

The binders below were run against T2, cynomolgus monkey P-cadherin ECD (assay: SPR Biacore 3000, antigen immobilised).
Experimental: as §1
For B1, the Kd was 43.4 nM, the koff was 0.0138 s⁻¹ and the kon was 318000 M⁻¹ s⁻¹. B2 gave a Kd of 129 nM, a koff of 0.0833 s⁻¹ and a kon of 705000 M⁻¹ s⁻¹. For B3, the Kd was 46.4 nM, the koff was 0.0578 s⁻¹ and the kon was 1.15e+06 M⁻¹ s⁻¹. For B4, the Kd was 1.37 nM, the koff was 0.00648 s⁻¹ and the kon was 4.72e+06 M⁻¹ s⁻¹. With B5 the Kd was 2.03 nM, the koff was 0.00704 s⁻¹ and the kon was 3.46e+06 M⁻¹ s⁻¹.

Each binder was assayed against T2, cynomolgus monkey P-cadherin ECD (assay: SPR Biacore pH 7.4, average).
B6 gave a Kd of 0.417 nM. In the case of B7, the Kd is reported as 1.84 nM. For B8, the Kd was 2.61 nM.
